T1: recombinant human IL-23R/Fc chimera (R&D Systems) (human, UniProt Q5VWK5 24-355)
T1 construct: Bought; also called rhIL23RFc
T1 sequence (looked up): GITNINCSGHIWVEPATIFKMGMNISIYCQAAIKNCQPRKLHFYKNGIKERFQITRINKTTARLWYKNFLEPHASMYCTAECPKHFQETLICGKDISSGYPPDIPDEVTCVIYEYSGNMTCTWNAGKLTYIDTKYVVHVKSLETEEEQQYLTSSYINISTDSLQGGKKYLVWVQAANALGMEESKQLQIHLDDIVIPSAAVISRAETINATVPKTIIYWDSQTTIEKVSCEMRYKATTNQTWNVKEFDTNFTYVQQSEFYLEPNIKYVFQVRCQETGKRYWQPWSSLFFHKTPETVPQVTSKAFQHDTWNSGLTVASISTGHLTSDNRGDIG

B1: 105-08-1A7 ATRIMER complex (designed binder)
chain: EPPTQKPKKIVNAKKDVVNTKMFEELKSRLDTLAQEVALLKEQQALQTVCLKGTKVHMKCFLAFTQTKTFHEASEDCISRGGTLSTPQTGSENDALYEYLRQSVGNEAEIWLGLNGSVRTNTWVDMTGARIAYKNWETEITAQPDGGFGYFGENCAVLSGAANGKWFDKRCRDQLPYICQFGIV
modifications: ATRIMER complex: homotrimer of three copies of this chain, joined by the tetranectin coiled coil
notes: not shown: C-terminal tag: Myc/His (pANA4) or HA-StrepII (pANA10)
B2: 105-08-1A10 ATRIMER complex (designed binder)
chain: EPPTQKPKKIVNAKKDVVNTKMFEELKSRLDTLAQEVALLKEQQALQTVCLKGTKVHMKCFLAFTQTKTFHEASEDCISRGGTLSTPQTGSENDALYEYLRQSVGNEAEIWLGLNGSSITDTWVDMTGARIAYKNWETEITAQPDGGWGYFGENCAVLSGAANGKWFDKRCRDQLPYICQFGIV
notes: not shown: C-terminal tag: His/Myc (pANA4) or HA-StrepII (pANA10)
B3: 105-08-1C4 ATRIMER complex (designed binder, not shown: small tags and cut ends)
chain: EPPTQKPKKIVNAKKDVVNTKMFEELKSRLDTLAQEVALLKEQQALQTVCLKGTKVHMKCFLAFTQTKTFHEASEDCISRGGTLSTPQTGSENDALYEYLRQSVGNEAEIWLGLNGSTLTDTWVDMTGARIAYKNWETEITAQPDGGWGYFGENCAVLSGAANGKWFDKRCRDQLPYICQFGIV
B4: 105-08-1C2 ATRIMER complex (designed binder)
chain: EPPTQKPKKIVNAKKDVVNTKMFEELKSRLDTLAQEVALLKEQQALQTVCLKGTKVHMKCFLAFTQTKTFHEASEDCISRGGTLSTPQTGSENDALYEYLRQSVGNEAEIWLGLNGSRATDTWVDMTGARIAYKNWETEITAQPDGGFGYFGENCAVLSGAANGKWFDKRCRDQLPYICQFGIV
B5: 105-08-1B10 ATRIMER complex (designed binder)
chain: EPPTQKPKKIVNAKKDVVNTKMFEELKSRLDTLAQEVALLKEQQALQTVCLKGTKVHMKCFLAFTQTKTFHEASEDCISRGGTLSTPQTGSENDALYEYLRQSVGNEAEIWLGLNGSRHTDTWVDMTGARIAYKNWETEITAQPDGGFGYFGENCAVLSGAANGKWFDKRCRDQLPYICQFGIV
notes: as for B2
B6: 105-08-1B7 ATRIMER complex (designed binder)
chain: EPPTQKPKKIVNAKKDVVNTKMFEELKSRLDTLAQEVALLKEQQALQTVCLKGTKVHMKCFLAFTQTKTFHEASEDCISRGGTLSTPQTGSENDALYEYLRQSVGNEAEIWLGLNGSPRTDTWVDMTGARIAYKNWETEITAQPDGGFGYFGENCAVLSGAANGKWFDKRCRDQLPYICQFGIV
B7: 105-08-1C3 ATRIMER complex (designed binder)
chain: EPPTQKPKKIVNAKKDVVNTKMFEELKSRLDTLAQEVALLKEQQALQTVCLKGTKVHMKCFLAFTQTKTFHEASEDCISRGGTLSTPQTGSENDALYEYLRQSVGNEAEIWLGLNGSQLTDTWVDMTGARIAYKNWETEITAQPDGGWGYFGENCAVLSGAANGKWFDKRCRDQLPYICQFGIV
B8: 105-08-1B1 ATRIMER complex (designed binder)
chain: EPPTQKPKKIVNAKKDVVNTKMFEELKSRLDTLAQEVALLKEQQALQTVCLKGTKVHMKCFLAFTQTKTFHEASEDCISRGGTLSTPQTGSENDALYEYLRQSVGNEAEIWLGLNGSPRTQTWVDMTGARIAYKNWETEITAQPDGGFGYFGENCAVLSGAANGKWFDKRCRDQLPYICQFGIV
modifications: ATRIMER complex: homotrimer of three copies of this chain, joined by the tetranectin coiled coil
notes: as for B1
B9: 105-08-1C6 ATRIMER complex (designed binder)
chain: EPPTQKPKKIVNAKKDVVNTKMFEELKSRLDTLAQEVALLKEQQALQTVCLKGTKVHMKCFLAFTQTKTFHEASEDCISRGGTLSTPQTGSENDALYEYLRQSVGNEAEIWLGLNGSALTDTWVDMTGARIAYKNWETEITAQPDGGFGYFGENCAVLSGAANGKWFDKRCRDQLPYICQFGIV
B10: 001-69.4E5 monomeric CTLD (designed binder)
chain: ALQTVCLKGTKVHMKCFLAFTQTKTFHEASEDCISRGGTLSTPQTGSENDALYEYLRQSVGNEAEIWLGLNGNPSGSVWVDMTGARIAYKNWETEITAQPDGGYGVWGENCAVLSGAANGKWFDKRCRDQLPYICQFGIV
notes: C-terminal tag not specified; not shown: Also the vector's N-terminal AGGGS after the pelB signal
B11: 001-89.C7F monomeric CTLD (designed binder)
chain: ALQTVCLKGTKVHMKCFLAFTQTKTFHEASEDCISRGGTLSTPQTGSENDALYEYLRQSVGNEAEIWLGLNGSLLTGLWVDMTGARIAYKNWETEITAQPDGGYGAWGENCAVLSGAANGKWFDKRCRDQLPYICQFGIV
B12: 001-69.4F5 monomeric CTLD (designed binder)
chain: ALQTVCLKGTKVHMKCFLAFTQTKTFHEASEDCISRGGTLSTPQTGSENDALYEYLRQSVGNEAEIWLGLNVLGWRREWVDMTGARIAYKNWETEITAQPDGGLVMPMENCAVLSGAANGKWFDKRCRDQLPYICQFGIV
notes: as for B10
B13: 001-89.C3C monomeric CTLD (designed binder)
chain: ALQTVCLKGTKVHMKCFLAFTQTKTFHEASEDCISRGGTLSTPQTGSENDALYEYLRQSVGNEAEIWLGLNANRRRTMWVDMTGARIAYKNWETEITAQPDGGMGVWGENCAVLSGAANGKWFDKRCRDQLPYICQFGIV
notes: C-terminal tag not specified
B14: 001-87.A5F monomeric CTLD (designed binder, not shown: small tags and cut ends)
chain: ALQTVCLKGTKVHMKCFLAFTQTKTFHEASEDCISRGGTLSTPQTGSENDALYEYLRQSVGNEAEIWLGLNGSVRSATWVDMTGARIAYKNWETEITAQPDGGFGYFGENCAVLSGAANGKWFDKRCRDQLPYICQFGIV
notes: C-terminal tag not specified
B15: 001-87.A9E monomeric CTLD (designed binder)
chain: ALQTVCLKGTKVHMKCFLAFTQTKTFHEASEDCISRGGTLSTPQTGSENDALYEYLRQSVGNEAEIWLGLNGSALTNTWVDMTGARIAYKNWETEITAQPDGGLGYWGENCAVLSGAANGKWFDKRCRDQLPYICQFGIV
notes: C-terminal tag not specified
B16: 001-69.4G8 monomeric CTLD (designed binder)
chain: ALQTVCLKGTKVHMKCFLAFTQTKTFHEASEDCISRGGTLSTPQTGSENDALYEYLRQSVGNEAEIWLGLNGSRRSGVWVDMTGARIAYKNWETEITAQPDGGFGVFGENCAVLSGAANGKWFDKRCRDQLPYICQFGIV
notes: C-terminal tag not specified; not shown: C-terminal tag: 6xHis (pANA1), HA-His (pANA3) or HA-StrepII (pANA12)
B17: 001-87.A8E monomeric CTLD (designed binder)
chain: ALQTVCLKGTKVHMKCFLAFTQTKTFHEASEDCISRGGTLSTPQTGSENDALYEYLRQSVGNEAEIWLGLNANPAQDLWVDMTGARIAYKNWETEITAQPDGGFGVWGENCAVLSGAANGKWFDKRCRDQLPYICQFGIV
notes: C-terminal tag not specified
B18: 001-87.A4A monomeric CTLD (designed binder)
chain: ALQTVCLKGTKVHMKCFLAFTQTKTFHEASEDCISRGGTLSTPQTGSENDALYEYLRQSVGNEAEIWLGLNWTLAKNLWVDMTGARIAYKNWETEITAQPDGGLFGRGENCAVLSGAANGKWFDKRCRDQLPYICQFGIV
notes: C-terminal tag not specified
B19: 001-89.C12E monomeric CTLD (designed binder)
chain: ALQTVCLKGTKVHMKCFLAFTQTKTFHEASEDCISRGGTLSTPQTGSENDALYEYLRQSVGNEAEIWLGLNWTKRTALWVDMTGARIAYKNWETEITAQPDGGMFGMGENCAVLSGAANGKWFDKRCRDQLPYICQFGIV
notes: C-terminal tag not specified

The target of one experiment is T1, recombinant human IL-23R/Fc chimera …. In words: competition ELISA vs IL-23. As to the method:
Assays were performed generally as follows. Individual wells in Immulon HB2 plates were incubated overnight at 4° C. with 100 μL PBS containing 100 ng of an anti-human IgG Fc (R&D MAB 110 clone 97924). Plates were washed five times with PBS/0.05% Tween 20, and wells were incubated for 1.5 h at RT with 100 μL each of PBS containing 50 ng of recombinant human IL-23R/Fc. […] Competitor was included at a final concentration of 1 μg/mL. After incubation, plates were washed as described and wells were incubated for 40 min at RT with 100 μL each of PBS containing a 1:5000 dilution of streptavidin-HRP conjugate (Pierce catalog no. 21130). After washing, wells were incubated with 100 μL each of TMB (BioFX Lab catalog no. TMBH-1000-0) for up to 30 min at RT. Reactions were stopped with an equal volume of 0.2 M sulfuric acid.
On to B1, for which the “Ratio IC50 to 056-53.H4E IC50” value is 2.9.

For B2, the “Ratio IC50 to 056-53.H4E IC50” value was 4.3.

In the case of B3, the “Ratio IC50 to 056-53.H4E IC50” value came out at 3.3.

For the molecule B4, the “Ratio IC50 to 056-53.H4E IC50” value came out at 4.1.

On to B5, for which the “Ratio IC50 to 056-53.H4E IC50” value was determined as 4.7.

Consider B6, for which the “Ratio IC50 to 056-53.H4E IC50” value worked out at 4.1.

On to B7, for which the “Ratio IC50 to 056-53.H4E IC50” value amounted to 3.6.

As to B8, the “Ratio IC50 to 056-53.H4E IC50” value is 3.3.

With B9, the “Ratio IC50 to 056-53.H4E IC50” value was 2.

For the next experiment the target is unchanged. In words: SPR. As to the method:
A Biacore 3000 biosensor (GE Healthcare) was used to evaluate the interaction of human IL-23R and receptor binders. Immobilization of an anti-human IgG Fc antibody (GE Healthcare) to the CM5 chip (GE Healthcare) was performed using standard amine coupling chemistry, and this modified surface was used to capture a recombinant human IL-23R/Fc fusion protein (R&D Systems). A low-density receptor surface, less than 200 RU, was used for all of the analyses. ATRIMER™ polypeptide complex dilutions (1-500 nM) were injected over the IL-23R surface at 30 μl/min and kinetic constants were derived from the sensorgram data using the Biaevaluation software (version 3.1, GE Healthcare). Data collection was 3 minutes for the association and 5 minutes for dissociation. The anti-human IgG surface was regenerated with a 30s pulse of 3M magnesium chloride. All sensorgrams were double-referenced against an activated and blocked flow-cell as well as buffer injections.
For orientation: In SPR one partner is held on a chip, and binding of the other changes the refractive index at the surface.
One may read the Kd as the concentration at which binding is half-saturated. As a reminder, the koff is a measure of how fast the partners let go of each other. What is called kon is the rate constant with which the complex forms. With B10, the Ka worked out at 2.82e+06 M⁻¹, the Kd worked out at 355 nM, the koff was 0.0161 s⁻¹ and the on-rate constant (kon) was found to be 45400 M⁻¹ s⁻¹.

Turning to B11, the Ka was 6.75e+06 M⁻¹, the dissociation constant Kd turned out to be 148 nM, the off-rate (koff) stood at 0.00531 s⁻¹ and the kon worked out at 35800 M⁻¹ s⁻¹.

As to B12, the Ka turned out to be 4.12e+06 M⁻¹, the dissociation constant (Kd) is 243 nM, the koff came out at 0.00571 s⁻¹ and the kon was determined as 23500 M⁻¹ s⁻¹.

Take B13: the Ka worked out at 5.34e+06 M⁻¹, the Kd amounted to 187 nM, the koff was found to be 0.0158 s⁻¹ and the kon amounted to 84500 M⁻¹ s⁻¹.

B14: the Ka came to 4.11e+07 M⁻¹, the Kd stood at 24.3 nM, the koff was 0.00415 s⁻¹ and the association rate constant (kon) amounted to 170000 M⁻¹ s⁻¹.

With B15, the Ka was found to be 9.29e+06 M⁻¹, the Kd turned out to be 108 nM, the koff worked out at 0.0041 s⁻¹ and the kon stood at 38100 M⁻¹ s⁻¹.

Take B16: the Ka amounted to 1.83e+07 M⁻¹, the Kd is 54 nM, the koff was found to be 0.00783 s⁻¹ and the kon amounted to 143000 M⁻¹ s⁻¹.

Take B17: the Ka was 7.09e+06 M⁻¹, the Kd was found to be 141 nM, the koff amounted to 0.00757 s⁻¹ and the kon amounted to 53700 M⁻¹ s⁻¹.

In the case of B18, the Ka was determined as 5.18e+06 M⁻¹, the Kd worked out at 193 nM, the koff was 0.0229 s⁻¹ and the on-rate constant (kon) is 118000 M⁻¹ s⁻¹.

As for B19, the Ka was 5.62e+06 M⁻¹, the Kd stood at 178 nM, the koff was 0.0074 s⁻¹ and the kon is 41600 M⁻¹ s⁻¹.
